Data taken from PMC4230784 (Molecular Biology of the Cell, 2014).

Biological target: flag-TBC1D9B, full length, wild type (human, UniProt Q66K14-1 1-1250)
Assay: co-IP

Chain of flag-TBC1D9B, full length, wild type (Q66K14 whole entry): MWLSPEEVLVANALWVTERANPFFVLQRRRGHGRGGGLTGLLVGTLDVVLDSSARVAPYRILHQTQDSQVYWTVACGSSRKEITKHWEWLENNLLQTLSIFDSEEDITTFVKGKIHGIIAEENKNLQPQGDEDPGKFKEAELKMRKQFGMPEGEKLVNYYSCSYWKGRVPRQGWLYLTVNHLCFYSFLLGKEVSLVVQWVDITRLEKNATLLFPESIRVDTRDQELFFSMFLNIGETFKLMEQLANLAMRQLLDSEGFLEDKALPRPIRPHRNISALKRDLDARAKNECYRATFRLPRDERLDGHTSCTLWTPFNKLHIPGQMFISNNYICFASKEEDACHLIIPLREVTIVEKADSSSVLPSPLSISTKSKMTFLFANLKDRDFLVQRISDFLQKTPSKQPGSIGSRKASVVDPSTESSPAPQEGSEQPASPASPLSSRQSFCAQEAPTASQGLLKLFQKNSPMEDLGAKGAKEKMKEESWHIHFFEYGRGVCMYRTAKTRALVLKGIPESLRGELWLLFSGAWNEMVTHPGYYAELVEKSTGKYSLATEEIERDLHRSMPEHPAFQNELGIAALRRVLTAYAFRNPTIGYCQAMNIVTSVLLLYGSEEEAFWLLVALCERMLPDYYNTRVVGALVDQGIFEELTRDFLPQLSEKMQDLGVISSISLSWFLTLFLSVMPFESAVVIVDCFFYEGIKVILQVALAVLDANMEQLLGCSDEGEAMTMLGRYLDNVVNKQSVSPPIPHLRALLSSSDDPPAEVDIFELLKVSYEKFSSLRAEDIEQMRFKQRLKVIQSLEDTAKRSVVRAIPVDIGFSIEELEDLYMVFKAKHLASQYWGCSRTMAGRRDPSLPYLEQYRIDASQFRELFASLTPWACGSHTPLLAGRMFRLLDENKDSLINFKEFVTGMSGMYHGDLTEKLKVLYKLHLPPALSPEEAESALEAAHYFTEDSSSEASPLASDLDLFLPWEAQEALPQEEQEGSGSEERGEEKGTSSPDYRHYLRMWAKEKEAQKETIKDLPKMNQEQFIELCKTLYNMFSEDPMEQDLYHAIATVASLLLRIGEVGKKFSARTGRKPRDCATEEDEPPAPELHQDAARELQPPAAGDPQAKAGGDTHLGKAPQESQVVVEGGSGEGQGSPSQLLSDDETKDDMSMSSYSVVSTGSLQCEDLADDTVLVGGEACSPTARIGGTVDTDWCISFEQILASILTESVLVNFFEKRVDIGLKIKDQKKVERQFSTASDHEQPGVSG

B1: GFP-Rab11aQ70L (natural protein, UniProt P62491 1-216, looked up)
chain: MGTRDDEYDYLFKVVLIGDSGVGKSNLLSRFTRNEFNLESKSTIGVEFATRSIQVDGKTIKAQIWDTAGLERYRAITSAYYRGAVGALLVYDIAKHLTYENVERWLKELRDHADSNIVIMLVGNKSDLRHLRAVPTDEARAFAEKNGLSFIETSALDSTNVEAAFQTILTEIYRIVSQKQMSDRRENDMSPSNNVVPIHVPPTTENKPKVQCCQNI
fold coimmunoprecipitated against Rab11a-WT or Rab11a-SN: ~5 fold
